In US20120316071A1 (published 2012):

Legend:
[1] = biological target: T1, Recombinant Human DLL4 (R&D Systems Cat#1506-D4/CF) (human, UniProt Q9NR61 27-524); experiment: 96-well plate ECL, DLL4 coated
T1 construct: bought recombinant protein; also called rHuman DLL4; delta-like protein 4

[2] = biological target: T2, Recombinant Human DLL4 (delta-like protein 4) (human, UniProt Q9NR61 27-524); experiment: ELISA, DLL4 coated on plate, Fab in solution, absorbance at 450 nm
T2 construct: Bought recombinant protein (R&D Systems Cat#1506-D4/CF); also called rHuman DLL4; Delta-like 4

[3] = biological target: T2, Recombinant Human DLL4 (delta-like …); experiment: ECL (MSD) multispot binding assay, DLL4 immobilized, Fab in solution
[4] = biological target: T3, Recombinant Human DLL4 (R&D Systems Cat#1506-D4/CF) (human, UniProt Q9NR61 27-524); experiment: ECL (MSD) binding assay, Fab on immobilized recombinant human DLL4
T3 construct: also called rHuman DLL4; delta-like protein 4

[5] = biological target: T3, Recombinant Human DLL4 (R&D Systems …); experiment: ECL (MSD) multispot binding assay, Fab on immobilized recombinant human DLL4
[6] = biological target: T4, Recombinant Human DLL4 (delta-like protein 4) (human, UniProt Q9NR61 27-524); experiment: ELISA, DLL4 coated on plate; Fab at 11.11 (head prints µM, text says nM)
T4 construct: Bought recombinant protein (R&D Systems Cat#1506-D4/CF); also called rHuman DLL4; Delta-like 4

[7] = biological target: T4, Recombinant Human DLL4 (delta-like …); experiment: ELISA, DLL4 coated on plate; Fab at 0.41 (head prints µM, text says nM)
[8] = biological target: T4, Recombinant Human DLL4 (delta-like …); experiment: ELISA, DLL4 coated on plate; Fab at 1.23 (head prints µM, text says nM)
[9] = biological target: T4, Recombinant Human DLL4 (delta-like …); experiment: ELISA, DLL4 coated on plate; Fab at 100 (head prints µM, text says nM)
[10] = biological target: T4, Recombinant Human DLL4 (delta-like …); experiment: ELISA, DLL4 coated on plate; Fab at 33.33 (head prints µM, text says nM)
[11] = biological target: T4, Recombinant Human DLL4 (delta-like …); experiment: ELISA, DLL4 coated on plate; Fab at 0.05 (head prints µM, text says nM)
[12] = biological target: T4, Recombinant Human DLL4 (delta-like …); experiment: ELISA, DLL4 coated on plate; Fab at 3.70 (head prints µM, text says nM)
[13] = biological target: T4, Recombinant Human DLL4 (delta-like …); experiment: ELISA, DLL4 coated on plate; Fab at 0.14 (head prints µM, text says nM)

Row | Binder | ECL Signal/Blank [5] | ELISA signal [6] | ELISA signal [7] | ELISA signal [8] | ELISA signal [9] | ELISA signal [10] | ELISA signal [11] | ELISA signal [12] | ELISA signal [13] | also measured
1 | Fab VH1-46_IGHD6-6*01_IGHJ1*01 S102A & L6_IGKJ1*01 (Fab, V domains shown, Fab) VH: QVQLVQSGAEVKKPGASVKVSCKASGYTFTSYYMHWVRQAPGQGLEWMGIINPSGGSTSYAQKFQGRVTMTRDTSTSTVYMELSSLRSEDTAVYYCAREEYASSSAEYFQHWGQGTLVTVSS VL: not shown |  |  |  |  |  |  |  |  |  | fold signal/noise ratio against the parent Fab [1]: ~3 fold
2 | Fab VH1-46_IGHD6-6*01_IGHJ1*01 S102A/S103P/S104F/H111F (H:APFF) & L6_IGKJ1*01 S76P (Fab, V domains shown, Tested as Fab expressed in E. coli; VH was cloned into Plasmid A (CH1 constant region, His6 and Flag tags) and the kappa VL into Plasmid C (kappa CL)) VH: QVQLVQSGAEVKKPGASVKVSCKASGYTFTSYYMHWVRQAPGQGLEWMGIINPSGGSTSYAQKFQGRVTMTRDTSTSTVYMELSSLRSEDTAVYYCAREEYAPFSAEYFQFWGQGTLVTVSS VL: EIVLTQSPATLSLSPGERATLSCRASQSVSSYLAWYQQKPGQAPRLLIYDASNRATGIPARFSGSGSGTDFTLTIPSLEPEDFAVYYCQQRSNWPPWTFGQGTKVEIKR |  |  |  |  |  |  |  |  |  | ELISA (Signal-Noise) [2]: 0.29; ECL Signal/Noise [3]: 100
3 | Fab VH1-46_IGHD6-6*01_IGHJ1*01 S102A/S103P/S104F/H111F (H:APFF) & L6_IGKJ1*01 S76Q (Fab, V domains shown, Tested as Fab expressed in E. coli; VH was cloned into Plasmid A (CH1 constant region, His6 and Flag tags) and the kappa VL into Plasmid C (kappa CL)) VH: QVQLVQSGAEVKKPGASVKVSCKASGYTFTSYYMHWVRQAPGQGLEWMGIINPSGGSTSYAQKFQGRVTMTRDTSTSTVYMELSSLRSEDTAVYYCAREEYAPFSAEYFQFWGQGTLVTVSS VL: EIVLTQSPATLSLSPGERATLSCRASQSVSSYLAWYQQKPGQAPRLLIYDASNRATGIPARFSGSGSGTDFTLTIQSLEPEDFAVYYCQQRSNWPPWTFGQGTKVEIKR |  |  |  |  |  |  |  |  |  | ELISA (Signal-Noise) [2]: 0.32; ECL Signal/Noise [3]: 187
4 | Fab VH1-46_IGHD6-6*01_IGHJ1*01 S104F & L6_IGKJ1*01 (Fab, V domains shown, Fab) VH: QVQLVQSGAEVKKPGASVKVSCKASGYTFTSYYMHWVRQAPGQGLEWMGIINPSGGSTSYAQKFQGRVTMTRDTSTSTVYMELSSLRSEDTAVYYCAREEYSSFSAEYFQHWGQGTLVTVSS VL: not shown |  |  |  |  |  |  |  |  |  | fold signal/noise ratio against the parent Fab [1]: ≥ 4 fold
5 | Fab VH1-46_IGHD6-6*01_IGHJ1*01 S103P & L6_IGKJ1*01 (Fab, V domains shown, Fab) VH: QVQLVQSGAEVKKPGASVKVSCKASGYTFTSYYMHWVRQAPGQGLEWMGIINPSGGSTSYAQKFQGRVTMTRDTSTSTVYMELSSLRSEDTAVYYCAREEYSPSSAEYFQHWGQGTLVTVSS VL: not shown |  |  |  |  |  |  |  |  |  | fold signal/noise ratio against the parent Fab [1]: ~3 fold
6 | Fab VH5-51_IGHD5-18*01>3_IGHJ4*01 G100K/G104T (KT) & V3-4_IGLJ1*01 (Fab, V domains shown, Tested as Fab; Fabs were expressed in E. coli from plasmid A (heavy chain CH1, His6 and Flag tags) and plasmid E (lambda CL); also called H:KT & L:wt) VH: EVQLVQSGAEVKKPGESLKISCKGSGYSFTSYWIGWVRQMPGKGLEWMGIIYPGDSDTRYSPSFQGQVTISADKSISTAYLQWSSLKASDTAMYYCARRKYSYTYDYFDYWGQGTLVTVSS VL: QTVVTQEPSFSVSPGGTVTLTCGLSSGSVSTSYYPSWYQQTPGQAPRTLIYSTNTRSSGVPDRFSGSILGNKAALTITGAQADDESDYYCVLYMGSGISYVFGTGTKVTVL | 49.2 |  |  |  |  |  |  |  |  | ECL signal [4]: 588
7 | Fab VH5-51_IGHD5-18*01>3_IGHJ4*01 G100K/G104T G24T/S28R/G35V (H:KT TRV) & V3-4_IGLJ1*01 V91L/S96P (L:LP) (Fab, V domains shown, Tested as a Fab made in E. coli; also called H:KT TRV & L:LP) VH: EVQLVQSGAEVKKPGESLKISCKTSGYRFTSYWIVWVRQMPGKGLEWMGIIYPGDSDTRYSPSFQGQVTISADKSISTAYLQWSSLKASDTAMYYCARRKYSYTYDYFDYWGQGTLVTVSS VL: QTVVTQEPSFSVSPGGTVTLTCGLSSGSVSTSYYPSWYQQTPGQAPRTLIYSTNTRSSGVPDRFSGSILGNKAALTITGAQADDESDYYCLLYMGPGISYVFGTGTKVTVL |  | 0.07 | 0.02 | 0.03 | 0.34 | 0.19 | 0.02 | 0.03 | 0.03 | 
8 | Fab VH5-51_IGHD5-18*01>3_IGHJ4*01 G100K/G104T G24T/S28R/G35V (H:KT TRV) & V3-4_IGLJ1*01 V91L/S96P S52M (Fab, V domains shown, Tested as a Fab made in E. coli; also called H:KT TRV & L:LP S52M) VH: EVQLVQSGAEVKKPGESLKISCKTSGYRFTSYWIVWVRQMPGKGLEWMGIIYPGDSDTRYSPSFQGQVTISADKSISTAYLQWSSLKASDTAMYYCARRKYSYTYDYFDYWGQGTLVTVSS VL: QTVVTQEPSFSVSPGGTVTLTCGLSSGSVSTSYYPSWYQQTPGQAPRTLIYMTNTRSSGVPDRFSGSILGNKAALTITGAQADDESDYYCLLYMGPGISYVFGTGTKVTVL |  | 0.06 | 0.03 | 0.03 | 0.24 | 0.12 | 0.02 | 0.03 | 0.02 | 

More lines, main results first:

Row | ECL Signal/Blank [5] | ELISA signal [6] | ELISA signal [7] | ELISA signal [8] | ELISA signal [9] | ELISA signal [10] | ELISA signal [11] | ELISA signal [12] | ELISA signal [13] | Binder | also measured
9 | 4.1 |  |  |  |  |  |  |  |  | Fab VH5-51_IGHD5-18*01>3_IGHJ4*01 G100K/G104T G54A & V3-4_IGLJ1*01 (Fab, V domains shown, Tested as Fab; CH1 with His6/Flag tags (plasmid A) and lambda CL (plasmid E) come from the expression vectors) VH: EVQLVQSGAEVKKPGESLKISCKGSGYSFTSYWIGWVRQMPGKGLEWMGIIYPADSDTRYSPSFQGQVTISADKSISTAYLQWSSLKASDTAMYYCARRKYSYTYDYFDYWGQGTLVTVSS VL: QTVVTQEPSFSVSPGGTVTLTCGLSSGSVSTSYYPSWYQQTPGQAPRTLIYSTNTRSSGVPDRFSGSILGNKAALTITGAQADDESDYYCVLYMGSGISYVFGTGTKVTVL | 
10 | 102 |  |  |  |  |  |  |  |  | Fab VH5-51_IGHD5-18*01>3_IGHJ4*01 G100K/G104T T58A & V3-4_IGLJ1*01 (Fab, V domains shown, Tested as Fab; CH1 with His6/Flag tags (plasmid A) and lambda CL (plasmid E) come from the expression vectors) VH: EVQLVQSGAEVKKPGESLKISCKGSGYSFTSYWIGWVRQMPGKGLEWMGIIYPGDSDARYSPSFQGQVTISADKSISTAYLQWSSLKASDTAMYYCARRKYSYTYDYFDYWGQGTLVTVSS VL: QTVVTQEPSFSVSPGGTVTLTCGLSSGSVSTSYYPSWYQQTPGQAPRTLIYSTNTRSSGVPDRFSGSILGNKAALTITGAQADDESDYYCVLYMGSGISYVFGTGTKVTVL | 
11 | 55 |  |  |  |  |  |  |  |  | Fab VH5-51_IGHD5-18*01>3_IGHJ4*01 G100K/G104T S56A & V3-4_IGLJ1*01 (Fab, V domains shown, Tested as Fab; CH1 with His6/Flag tags (plasmid A) and lambda CL (plasmid E) come from the expression vectors) VH: EVQLVQSGAEVKKPGESLKISCKGSGYSFTSYWIGWVRQMPGKGLEWMGIIYPGDADTRYSPSFQGQVTISADKSISTAYLQWSSLKASDTAMYYCARRKYSYTYDYFDYWGQGTLVTVSS VL: QTVVTQEPSFSVSPGGTVTLTCGLSSGSVSTSYYPSWYQQTPGQAPRTLIYSTNTRSSGVPDRFSGSILGNKAALTITGAQADDESDYYCVLYMGSGISYVFGTGTKVTVL | 
12 |  | 0.04 | 0.01 | 0.01 | 0.16 | 0.08 | 0.01 | 0.03 | 0 | Fab VH5-51_IGHD5-18*01>3_IGHJ4*01 G100K/G104T G24T/S28R/G35V (H:KT TRV) & V3-4_IGLJ1*01 (Fab, V domains shown, Tested as a Fab made in E. coli; also called H:KT TRV & L:wt; Wildtype (light chain)) VH: EVQLVQSGAEVKKPGESLKISCKTSGYRFTSYWIVWVRQMPGKGLEWMGIIYPGDSDTRYSPSFQGQVTISADKSISTAYLQWSSLKASDTAMYYCARRKYSYTYDYFDYWGQGTLVTVSS VL: QTVVTQEPSFSVSPGGTVTLTCGLSSGSVSTSYYPSWYQQTPGQAPRTLIYSTNTRSSGVPDRFSGSILGNKAALTITGAQADDESDYYCVLYMGSGISYVFGTGTKVTVL | 
13 |  | 0.17 | 0.01 | 0.03 | 0.69 | 0.35 | 0.02 | 0.06 | 0.02 | Fab VH5-51_IGHD5-18*01>3_IGHJ4*01 G100K/G104T G24T/S28R/G35V (H:KT TRV) & V3-4_IGLJ1*01 V91L/S96P S52G (Fab, V domains shown, Tested as a Fab made in E. coli; also called H:KT TRV & L:LP S52G) VH: EVQLVQSGAEVKKPGESLKISCKTSGYRFTSYWIVWVRQMPGKGLEWMGIIYPGDSDTRYSPSFQGQVTISADKSISTAYLQWSSLKASDTAMYYCARRKYSYTYDYFDYWGQGTLVTVSS VL: QTVVTQEPSFSVSPGGTVTLTCGLSSGSVSTSYYPSWYQQTPGQAPRTLIYGTNTRSSGVPDRFSGSILGNKAALTITGAQADDESDYYCLLYMGPGISYVFGTGTKVTVL | 
